Patent US20240279288A1, “APPLICATION OF PLANT JAZ PROTEINS AND DERIVED POLYPEPTIDES IN PREVENTION AND TREATMENT OF HUMAN AND ANIMAL TUMORS” (ANYANG INSTITUTE OF SINO-COTTON INDUSTRY INNOVATION, priority 2021, published 2024)

Legend:
[1] = system: Human ovarian cancer cells SKOV3 tumor; experiment: Ovarian cancer mouse model in vivo, intratumoral injection; design: species or system nude mice; conditions: 5 mg/kg intratumoral injection every 2 days, 7 times
Protocol: Human ovarian cancer cells SKOV3 were cultured. Cells were digested by the trypsin before being used for tumor bearing. Cells were washed twice with PBS, followed by resuspending with PBS to a concentration of 1×10^8/mL. The cell suspension was subcutaneously injected into the axilla of nude mice, with an inoculation dose of 0.2 mL per nude mouse. After inoculation, nude mice were randomly assigned into two groups, which were PBS group and GhJAZ1 protein (5 mg/kg) treated group, respectively, with 8 mice in each group. After tumor inoculation, administration began when the tumor volume reached to about 50-100 mm^3. Administration by intratumoral injection was conducted every 2 days for a cycle of 14 days, in total of 7 times. Throughout the entire experiment, the body weight of nude mice was monitored while administration, and tumor size was measured using a vernier caliper according on the formula V=½×length×width×width, to calculate the tumor volume, and plot tumor growth curve. 14 days later, the tumor was removed, took images and weighted.

[2] = target: T1, c-Myc (Homo sapiens, UniProt P01106); experiment: CO-IP with c-Myc in HEK293 cells; type: binding; design: host or cells: HEK293 cells (method paragraph: 293T)
Protocol: (§1) Steps of method of CO-IP experiment: Non-denaturing lysate was added to 293T cell culture plate (Pricella, Cat. No.: CL-0005), and the cells were completely lysed at 4° C. The lysate was centrifuged at 12,000 rpm for 10 min and the supernatant was collected. The corresponding antibody was added to the obtained non-denatured protein solution, which was incubated overnight at 4° C. Pierce™ protein A/G magnetic agarose (Thermo Fisher Scientific, Inc.) were washed with lysis buffer, followed by addition pre-treated beads to the cell lysate, and incubation at room temperature for 2 hours. The mixture was centrifuged at 4° C., 2,500 rpm for 5 min with supernatant removed, and the agarose beads were washed 5 times with 1 ml of lysis buffer. An appropriate amount of protein loading buffer was added to the pellet, and the sample was incubated in water bath at 100° C. for 10 min. The band of interest was detected by Western blotting.
(§2) Immunoprecipitation method (method of the experiment as Example 3) was used.

[3] = system: downstream genes of c-Myc in MCF7 cells; experiment: Transcriptome sequencing and RT-PCR of c-Myc downstream genes, MCF7; type: cell-based, human
Protocol: Identification at the RNA level: RNA was extracted using RNA extraction kit (RNAprep Pure Polysaccharide Polyphenol Plant Total RNA Extraction Kit (DP441), manufacturer: TIANGEN BIOTECH (BEIJING) CO., LTD.), and then cDNA was obtained using two-step reverse transcription kit (a third-generation premix for two-step de-genomization and reverse transcription, Cat. No.: MR05201). cDNA as a template was added into a 96-well plate, with addition of SYBR®Green I chimeric dye (an antibody dye quantitative PCR premix, Cat. No.: MQ10101) and gene primers for three-step qPCR amplification. Finally, the relative gene expression was calculated based on the Ct value.
And it was validated to be consistent with the transcriptome results (B in FIG. 9) by RT-PCR (the steps of method as Example 1). Wherein, the sequences of RT-PCR primers were as follows: […]
Wherein, the sequences of primers were as follows: […]

[4] = target: T2, NMYC (Homo sapiens, UniProt P04198); experiment: CO-IP with NMYC in HEK293 cells; type: binding
T2 construct: with the full length of c-Myc and NMYC, respectively; expressed in transfected cells; host or cells: yeast Y2HGold
T2 sequence (P04198 1-464): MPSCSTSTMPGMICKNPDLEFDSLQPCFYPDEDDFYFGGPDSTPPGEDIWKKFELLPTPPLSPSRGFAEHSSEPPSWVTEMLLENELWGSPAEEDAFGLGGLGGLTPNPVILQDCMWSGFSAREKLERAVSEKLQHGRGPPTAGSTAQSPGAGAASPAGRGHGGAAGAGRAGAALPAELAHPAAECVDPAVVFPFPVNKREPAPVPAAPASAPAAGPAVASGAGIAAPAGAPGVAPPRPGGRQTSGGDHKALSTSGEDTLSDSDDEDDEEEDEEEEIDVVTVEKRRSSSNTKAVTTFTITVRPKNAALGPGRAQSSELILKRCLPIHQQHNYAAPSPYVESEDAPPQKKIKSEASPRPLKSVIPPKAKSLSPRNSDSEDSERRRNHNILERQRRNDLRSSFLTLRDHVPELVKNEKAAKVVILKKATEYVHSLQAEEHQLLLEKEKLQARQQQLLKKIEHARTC
Protocol: as §1, §2

[5] = system: breast cancer cells (MCF7); experiment: CCK8 cell viability detection, MCF7; type: cell-based, human
Protocol: CCK8 cell viability detection: cell suspension was seeded in 96-well plates at a concentration of 5×10^4 cells/ml (100 μL/well). The plates were placed in the incubator for pre-culture (at 37° C., 5% CO2), and control and protein agents were added to each well 24 h after seeding. The plates were then placed in the incubator for 24 h, followed by addition of 10 μL CCK8 solution into each well and incubation of the plates in the incubator for 0.5-2 h before the absorbance measurement at 450 nm using a microplate reader.
We constructed GhJAZ1 prokaryotic expression plasmid with His-tag to express proteins (see step 2 in Example 4), and then a GhJAZ1 protein, along with 6 His tags, which was approximately 30 KD in size was found by WB detection (A in FIG. 7). The purified GhJAZ1 protein was used to treat breast cancer cells (MCF7) and breast epithelial cells (MCF10A), and the cell viability was measured with CCK8.

[6] = target: T1, c-Myc; experiment: Bimolecular fluorescence complementary experiment with c-Myc; type: binding; design: with the full length of c-Myc and NMYC, respectively; expressed in transfected cells; host or cells: yeast Y2HGold; conditions: bimolecular fluorescence complementation, YFP signal in the nucleus of tobacco
Excerpt: GhJAZ1 (SEQ ID No. 39) was subcloned into pUC-SPYNE vector (Song, Yun, et al. “BIN2 negatively regulates plant defense against Verticillium dahliae in Arabidopsis and cotton.” Plant Biotechnology Journal (2021)) between the BamHI and XbaiI cleavage sites by the bimolecular fluorescence complementary experiment to construct pUC-SPYNE-GhJAZ1. c-Myc (NCBI accession number: NM_002467.6) was subcloned into pUC-SPYCE vector (Song, Yun, et al. “BIN2 negatively regulates plant defense against Verticillium dahliae in Arabidopsis and cotton.” Plant Biotechnology Journal (2021)) between BamHI and XbaiI cleavage sites to construct pUC-SPYCE-c-Myc. […] Testing of inhibitory effect of GhJAZ1 protein on tumor cells

T1 sequence (P01106 whole entry): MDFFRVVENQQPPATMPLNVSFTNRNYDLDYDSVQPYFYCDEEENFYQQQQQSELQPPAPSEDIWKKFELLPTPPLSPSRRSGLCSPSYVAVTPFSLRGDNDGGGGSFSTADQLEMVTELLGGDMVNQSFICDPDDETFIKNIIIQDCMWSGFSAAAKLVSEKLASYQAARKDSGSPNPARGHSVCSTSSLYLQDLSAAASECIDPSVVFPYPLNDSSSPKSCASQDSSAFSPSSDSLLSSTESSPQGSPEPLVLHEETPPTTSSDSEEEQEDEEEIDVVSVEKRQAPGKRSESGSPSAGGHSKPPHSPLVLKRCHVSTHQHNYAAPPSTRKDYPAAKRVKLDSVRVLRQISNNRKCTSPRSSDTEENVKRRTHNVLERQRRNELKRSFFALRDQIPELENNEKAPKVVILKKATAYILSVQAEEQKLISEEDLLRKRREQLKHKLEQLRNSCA

B1: GhJAZ1: cotton JAZ1 protein, gene number Gh_A05G0260, sequence SEQ ID No. 4; prokaryotically expressed with His tag, about 30 KD (protein)
chain: MSSCSESTAMKPARSPEKPSFAQTCNLLSQYLKEKGSFGDLSLGMTCNVEANGTPVVPPPTMNLFPLNDKSDDVCGRNGGNPKNLTSMDLFPQQAGLASKDDSPNKLEPQTAPMTIFYGGQVIVFNDFPANKAKEIMLLASNSSSQSNNSFNPIPFTSSIARSPIESSIGVPPTSKPVHPAQRAVPGDLPIARRASLHRFLEKRKDRITAKAPYQINNSAAAPSLSGDNKSWLGLAAQSP
modifications: His tag
notes: prokaryotically expressed with His tag, about 30 KD
volume of tumors vs control group ([1]; SKOV3 in nude mice): highly significantly lower | weight of tumors vs control group ([1]; tumors removed after 14 days): highly significantly lower | interaction with c-Myc [2]: interacted | expression of cell cycle-related genes (transcriptome, validated by RT-PCR) ([3]; MCF7, 0.691 μM, 24 h): down regulated | expression of CCNE1 ([3]; MCF7, RT-PCR): extremely significantly upregulated | expression of P21 gene ([3]; MCF7, RT-PCR): extremely significantly upregulated | expression of apoptosis related genes Bcl2, BAX, HK2, FASN, MCM5 downstream of c-Myc ([3]; MCF7, RT-PCR): extremely significantly downregulated | expression of cell cycle-related genes CCNA2, CCNB1, CCND1 ([3]; MCF7, RT-PCR): extremely significantly downregulated | interaction with NMYC [4]: interacted | IC50 ([5]; CCK8, 24 h treatment, read-out: IC50, inhibition of MCF7 cells): 691 nM | viability of MCF7 cells ([5]; with the increase of GhJAZ1 protein concentration): decreased significantly | interaction with c-Myc [6]: interaction
